Data on six molecules can be found in patent US20210388110A1 (published 2021).

By Kd is commonly meant the equilibrium constant for the complex coming apart. Read a low Kd as a tighter complex.

The assay concerns the target T1, soluble human CD3ε chain (human, UniProt P07766 23-126, limits assumed).
T1 construct: the text says soluble human CD3ε chain; also called human CD3 epsilon chain
Nature of the assay: SPR (Biacore). On the technique in general: SPR reads the build-up and loss of mass on a sensor chip optically.

T1 sequence (P07766 23-126 limits assumed): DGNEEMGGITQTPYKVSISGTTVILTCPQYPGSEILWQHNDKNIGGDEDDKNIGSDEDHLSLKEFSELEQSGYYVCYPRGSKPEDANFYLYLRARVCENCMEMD

B1: TR01H025-E22Hh/none-Hi-Kn010G3/L0000-k0 (antibody, human IgG1, kappa, L234A L235A, N297A)
heavy: QVQLVESGGGLVQPGRSLRLSCAASGFTFSNAWMHWVRQAPGKGLEWVAQIKSKSQNYATYYAESVKGRFTISRADSKNSIYLQMNSLKTEDTAVYYCRYVHYSASYGVDIWGQGTTVTVSSASTKGPSVFPLAPSSKSTSGGTAALGCLVKDYFPEPVTVSWNSGALTSGVHTFPAVLQSSGLYSLSSVVTVPSSSLGTQTYICNVNHKPSNTKVDKKVEPKSCDKTHTCPPCPAPEAAGGPSVFLFPPKPKDTLMISRTPEVTCVVVDVSHEDPEVKFNWYVDGVEVHNAKTKPREEQYASTYRVVSVLTVLHQDWLNGKEYKCKVSNKALPAPIEKTISKAKGQPREPQVYTLPPSRCELTKNQVSLSCAVKGFYPSDIAVEWESNGQPENNYKTTPPVLDSDGSFFLVSKLTVDKSRWQQGNVFSCSVMHEALHNHYTQKSLSLSPDYKDDDDK
chain: EPKSSDKTHTCPPCPAPELLGGPSVFLFPPKPKDTLMISRTPEVTCVVVDVSHEDPEVKFNWYVDGVEVHNAKTKPREEQYNSTYRVVSVLTVLHQDWLNGKEYKCKVSNKALPAPIEKTISKAKGQPREPQVCTLPPSRDELTKNQVSLWCLVKGFYPSDIAVEWESNGQPENNYKTTPPVLDSDGSFFLYSKLTVDKSRWQQGNVFSCSVMHEALHNRYTQKSLSLSP
light: DIVMTQSPLSLPVTPGEPASISCRSSQSLVHSNRNTYLHWYQQKPGQAPRLLIYKVSNRFSGVPDRFSGSGSGTDFTLKISRVEAEDVGVYYCGQGTQVPYTFGQGTKLEIKRTVAAPSVFIFPPSDEQLKSGTASVVCLLNNFYPREAKVQWKVDNALQSGNSQESVTEQDSKDSTYSLSSTLTLSKADYEKHKVYACEVTHQGLSSPVTKSFNRGEC
notes: single-arm
As to B1, the Kd is 38.6 nM.

B2: TR01H028-E22Hh/none-Hi-Kn010G3/L0000-k0 (antibody, human IgG1, kappa, L234A L235A, N297A)
heavy: QVQLVESGGGVVQPGGSLRLSCAASGFTFSNAWMHWVRQAPGKGLEWVAQIKSKSQNYATYYAESVKGRFTISRADSKNSIYLQMNSLKTEDTAVYYCRYVHYSASYGVDIWGQGTTVTVSSASTKGPSVFPLAPSSKSTSGGTAALGCLVKDYFPEPVTVSWNSGALTSGVHTFPAVLQSSGLYSLSSVVTVPSSSLGTQTYICNVNHKPSNTKVDKKVEPKSCDKTHTCPPCPAPEAAGGPSVFLFPPKPKDTLMISRTPEVTCVVVDVSHEDPEVKFNWYVDGVEVHNAKTKPREEQYASTYRVVSVLTVLHQDWLNGKEYKCKVSNKALPAPIEKTISKAKGQPREPQVYTLPPSRCELTKNQVSLSCAVKGFYPSDIAVEWESNGQPENNYKTTPPVLDSDGSFFLVSKLTVDKSRWQQGNVFSCSVMHEALHNHYTQKSLSLSPDYKDDDDK
chain: EPKSSDKTHTCPPCPAPELLGGPSVFLFPPKPKDTLMISRTPEVTCVVVDVSHEDPEVKFNWYVDGVEVHNAKTKPREEQYNSTYRVVSVLTVLHQDWLNGKEYKCKVSNKALPAPIEKTISKAKGQPREPQVCTLPPSRDELTKNQVSLWCLVKGFYPSDIAVEWESNGQPENNYKTTPPVLDSDGSFFLYSKLTVDKSRWQQGNVFSCSVMHEALHNRYTQKSLSLSP
light: DIVMTQSPLSLPVTPGEPASISCRSSQSLVHSNRNTYLHWYQQKPGQAPRLLIYKVSNRFSGVPDRFSGSGSGTDFTLKISRVEAEDVGVYYCGQGTQVPYTFGQGTKLEIKRTVAAPSVFIFPPSDEQLKSGTASVVCLLNNFYPREAKVQWKVDNALQSGNSQESVTEQDSKDSTYSLSSTLTLSKADYEKHKVYACEVTHQGLSSPVTKSFNRGEC
notes: single-arm
B2 displayed a Kd of 48 nM. The Kd values of the last two molecules are within 1.5-fold of each other.

B3: TR01H030-E22Hh/none-Hi-Kn010G3/L0000-k0 (antibody, human IgG1, kappa, L234A L235A, N297A)
heavy: QVQLVESGGGVVQPGRSLRLSCAASGFTFSNAWMHWVRQAPGKGLEWVAQIKGKSNNYATYYAESVKGRFTISRADSKNSIYLQMNSLKTEDTAVYYCRYVHYSASYGVDIWGQGTTVTVSSASTKGPSVFPLAPSSKSTSGGTAALGCLVKDYFPEPVTVSWNSGALTSGVHTFPAVLQSSGLYSLSSVVTVPSSSLGTQTYICNVNHKPSNTKVDKKVEPKSCDKTHTCPPCPAPEAAGGPSVFLFPPKPKDTLMISRTPEVTCVVVDVSHEDPEVKFNWYVDGVEVHNAKTKPREEQYASTYRVVSVLTVLHQDWLNGKEYKCKVSNKALPAPIEKTISKAKGQPREPQVYTLPPSRCELTKNQVSLSCAVKGFYPSDIAVEWESNGQPENNYKTTPPVLDSDGSFFLVSKLTVDKSRWQQGNVFSCSVMHEALHNHYTQKSLSLSPDYKDDDDK
chain: EPKSSDKTHTCPPCPAPELLGGPSVFLFPPKPKDTLMISRTPEVTCVVVDVSHEDPEVKFNWYVDGVEVHNAKTKPREEQYNSTYRVVSVLTVLHQDWLNGKEYKCKVSNKALPAPIEKTISKAKGQPREPQVCTLPPSRDELTKNQVSLWCLVKGFYPSDIAVEWESNGQPENNYKTTPPVLDSDGSFFLYSKLTVDKSRWQQGNVFSCSVMHEALHNRYTQKSLSLSP
light: DIVMTQSPLSLPVTPGEPASISCRSSQSLVHSNRNTYLHWYQQKPGQAPRLLIYKVSNRFSGVPDRFSGSGSGTDFTLKISRVEAEDVGVYYCGQGTQVPYTFGQGTKLEIKRTVAAPSVFIFPPSDEQLKSGTASVVCLLNNFYPREAKVQWKVDNALQSGNSQESVTEQDSKDSTYSLSSTLTLSKADYEKHKVYACEVTHQGLSSPVTKSFNRGEC
notes: single-arm
On to B3, for which the dissociation constant (Kd) was determined as 65.4 nM.

B4: TR01H029-E22Hh/none-Hi-Kn010G3/L0000-k0 (antibody, human IgG1, kappa, L234A L235A, N297A)
heavy: QVQLVESGGGLVQPGRSLRLSCSASGFTFSNAWMHWVRQAPGKGLEWVAQIKGKSNNYATYYAESVKGRFTISRADSKNSIYLQMNSLKTEDTAVYYCRYVHYSASYGVDIWGQGTTVTVSSASTKGPSVFPLAPSSKSTSGGTAALGCLVKDYFPEPVTVSWNSGALTSGVHTFPAVLQSSGLYSLSSVVTVPSSSLGTQTYICNVNHKPSNTKVDKKVEPKSCDKTHTCPPCPAPEAAGGPSVFLFPPKPKDTLMISRTPEVTCVVVDVSHEDPEVKFNWYVDGVEVHNAKTKPREEQYASTYRVVSVLTVLHQDWLNGKEYKCKVSNKALPAPIEKTISKAKGQPREPQVYTLPPSRCELTKNQVSLSCAVKGFYPSDIAVEWESNGQPENNYKTTPPVLDSDGSFFLVSKLTVDKSRWQQGNVFSCSVMHEALHNHYTQKSLSLSPDYKDDDDK
chain: EPKSSDKTHTCPPCPAPELLGGPSVFLFPPKPKDTLMISRTPEVTCVVVDVSHEDPEVKFNWYVDGVEVHNAKTKPREEQYNSTYRVVSVLTVLHQDWLNGKEYKCKVSNKALPAPIEKTISKAKGQPREPQVCTLPPSRDELTKNQVSLWCLVKGFYPSDIAVEWESNGQPENNYKTTPPVLDSDGSFFLYSKLTVDKSRWQQGNVFSCSVMHEALHNRYTQKSLSLSP
light: DIVMTQSPLSLPVTPGEPASISCRSSQSLVHSNRNTYLHWYQQKPGQAPRLLIYKVSNRFSGVPDRFSGSGSGTDFTLKISRVEAEDVGVYYCGQGTQVPYTFGQGTKLEIKRTVAAPSVFIFPPSDEQLKSGTASVVCLLNNFYPREAKVQWKVDNALQSGNSQESVTEQDSKDSTYSLSSTLTLSKADYEKHKVYACEVTHQGLSSPVTKSFNRGEC
notes: single-arm
As for B4, the affinity, expressed as Kd, was 67 nM.

B5: TR01H027-E22Hh/none-Hi-Kn010G3/L0000-k0 (antibody, human IgG1, kappa, L234A L235A, N297A)
heavy: QVQLVESGGGLVQPGGSLRLSCAASGFTFSNAWMHWVRQAPGKGLEWVAQIKSKSQNYATYYAESVKGRFTISRADSKNSIYLQMNSLKTEDTAVYYCRYVHYSASYGVDAWGQGTTVTVSSASTKGPSVFPLAPSSKSTSGGTAALGCLVKDYFPEPVTVSWNSGALTSGVHTFPAVLQSSGLYSLSSVVTVPSSSLGTQTYICNVNHKPSNTKVDKKVEPKSCDKTHTCPPCPAPEAAGGPSVFLFPPKPKDTLMISRTPEVTCVVVDVSHEDPEVKFNWYVDGVEVHNAKTKPREEQYASTYRVVSVLTVLHQDWLNGKEYKCKVSNKALPAPIEKTISKAKGQPREPQVYTLPPSRCELTKNQVSLSCAVKGFYPSDIAVEWESNGQPENNYKTTPPVLDSDGSFFLVSKLTVDKSRWQQGNVFSCSVMHEALHNHYTQKSLSLSPDYKDDDDK
chain: EPKSSDKTHTCPPCPAPELLGGPSVFLFPPKPKDTLMISRTPEVTCVVVDVSHEDPEVKFNWYVDGVEVHNAKTKPREEQYNSTYRVVSVLTVLHQDWLNGKEYKCKVSNKALPAPIEKTISKAKGQPREPQVCTLPPSRDELTKNQVSLWCLVKGFYPSDIAVEWESNGQPENNYKTTPPVLDSDGSFFLYSKLTVDKSRWQQGNVFSCSVMHEALHNRYTQKSLSLSP
light: DIVMTQSPLSLPVTPGEPASISCRSSQSLVHSNRNTYLHWYQQKPGQAPRLLIYKVSNRFSGVPDRFSGSGSGTDFTLKISRVEAEDVGVYYCGQGTQVPYTFGQGTKLEIKRTVAAPSVFIFPPSDEQLKSGTASVVCLLNNFYPREAKVQWKVDNALQSGNSQESVTEQDSKDSTYSLSSTLTLSKADYEKHKVYACEVTHQGLSSPVTKSFNRGEC
notes: single-arm
Turning to B5, the Kd is 69.5 nM.

B6: TR01H026-E22Hh/none-Hi-Kn010G3/L0000-k0 (antibody, human IgG1, kappa, L234A L235A, N297A)
heavy: QVQLVESGGGLVQPGGSLRLSCAASGFTFSNAWMHWVRQAPGKGLEWVAQIKSKSQNYATYYAESVKGRFTISRADSKNSIYLQMNSLKTEDTAVYYCRYVHYSASYGVDIWGQGTTVTVSSASTKGPSVFPLAPSSKSTSGGTAALGCLVKDYFPEPVTVSWNSGALTSGVHTFPAVLQSSGLYSLSSVVTVPSSSLGTQTYICNVNHKPSNTKVDKKVEPKSCDKTHTCPPCPAPEAAGGPSVFLFPPKPKDTLMISRTPEVTCVVVDVSHEDPEVKFNWYVDGVEVHNAKTKPREEQYASTYRVVSVLTVLHQDWLNGKEYKCKVSNKALPAPIEKTISKAKGQPREPQVYTLPPSRCELTKNQVSLSCAVKGFYPSDIAVEWESNGQPENNYKTTPPVLDSDGSFFLVSKLTVDKSRWQQGNVFSCSVMHEALHNHYTQKSLSLSPDYKDDDDK
chain: EPKSSDKTHTCPPCPAPELLGGPSVFLFPPKPKDTLMISRTPEVTCVVVDVSHEDPEVKFNWYVDGVEVHNAKTKPREEQYNSTYRVVSVLTVLHQDWLNGKEYKCKVSNKALPAPIEKTISKAKGQPREPQVCTLPPSRDELTKNQVSLWCLVKGFYPSDIAVEWESNGQPENNYKTTPPVLDSDGSFFLYSKLTVDKSRWQQGNVFSCSVMHEALHNRYTQKSLSLSP
light: DIVMTQSPLSLPVTPGEPASISCRSSQSLVHSNRNTYLHWYQQKPGQAPRLLIYKVSNRFSGVPDRFSGSGSGTDFTLKISRVEAEDVGVYYCGQGTQVPYTFGQGTKLEIKRTVAAPSVFIFPPSDEQLKSGTASVVCLLNNFYPREAKVQWKVDNALQSGNSQESVTEQDSKDSTYSLSSTLTLSKADYEKHKVYACEVTHQGLSSPVTKSFNRGEC
notes: single-arm
B6 registered a Kd of 51.2 nM.
